# From PMC4520773 (Journal of molecular biology, 2015)
# “And” between values parts separate entries of the source, which are not always exact repeats. Equal entries are not always repeated.
# Experiments:
# [1] = molecular target: T1, huntingtin exon 1-thioredoxin (TRX) fusion protein with 16 glutamines (Homo sapiens, UniProt P42858, strain); assay: small angle X-ray scattering
# [2] = molecular target: T2, huntingtin exon 1-thioredoxin (TRX) fusion protein with 39 glutamines (Homo sapiens, UniProt P42858, strain); assay: SEC
# T2 sequence (P42858 whole entry, looked up, change not shown, the tested form may be a part): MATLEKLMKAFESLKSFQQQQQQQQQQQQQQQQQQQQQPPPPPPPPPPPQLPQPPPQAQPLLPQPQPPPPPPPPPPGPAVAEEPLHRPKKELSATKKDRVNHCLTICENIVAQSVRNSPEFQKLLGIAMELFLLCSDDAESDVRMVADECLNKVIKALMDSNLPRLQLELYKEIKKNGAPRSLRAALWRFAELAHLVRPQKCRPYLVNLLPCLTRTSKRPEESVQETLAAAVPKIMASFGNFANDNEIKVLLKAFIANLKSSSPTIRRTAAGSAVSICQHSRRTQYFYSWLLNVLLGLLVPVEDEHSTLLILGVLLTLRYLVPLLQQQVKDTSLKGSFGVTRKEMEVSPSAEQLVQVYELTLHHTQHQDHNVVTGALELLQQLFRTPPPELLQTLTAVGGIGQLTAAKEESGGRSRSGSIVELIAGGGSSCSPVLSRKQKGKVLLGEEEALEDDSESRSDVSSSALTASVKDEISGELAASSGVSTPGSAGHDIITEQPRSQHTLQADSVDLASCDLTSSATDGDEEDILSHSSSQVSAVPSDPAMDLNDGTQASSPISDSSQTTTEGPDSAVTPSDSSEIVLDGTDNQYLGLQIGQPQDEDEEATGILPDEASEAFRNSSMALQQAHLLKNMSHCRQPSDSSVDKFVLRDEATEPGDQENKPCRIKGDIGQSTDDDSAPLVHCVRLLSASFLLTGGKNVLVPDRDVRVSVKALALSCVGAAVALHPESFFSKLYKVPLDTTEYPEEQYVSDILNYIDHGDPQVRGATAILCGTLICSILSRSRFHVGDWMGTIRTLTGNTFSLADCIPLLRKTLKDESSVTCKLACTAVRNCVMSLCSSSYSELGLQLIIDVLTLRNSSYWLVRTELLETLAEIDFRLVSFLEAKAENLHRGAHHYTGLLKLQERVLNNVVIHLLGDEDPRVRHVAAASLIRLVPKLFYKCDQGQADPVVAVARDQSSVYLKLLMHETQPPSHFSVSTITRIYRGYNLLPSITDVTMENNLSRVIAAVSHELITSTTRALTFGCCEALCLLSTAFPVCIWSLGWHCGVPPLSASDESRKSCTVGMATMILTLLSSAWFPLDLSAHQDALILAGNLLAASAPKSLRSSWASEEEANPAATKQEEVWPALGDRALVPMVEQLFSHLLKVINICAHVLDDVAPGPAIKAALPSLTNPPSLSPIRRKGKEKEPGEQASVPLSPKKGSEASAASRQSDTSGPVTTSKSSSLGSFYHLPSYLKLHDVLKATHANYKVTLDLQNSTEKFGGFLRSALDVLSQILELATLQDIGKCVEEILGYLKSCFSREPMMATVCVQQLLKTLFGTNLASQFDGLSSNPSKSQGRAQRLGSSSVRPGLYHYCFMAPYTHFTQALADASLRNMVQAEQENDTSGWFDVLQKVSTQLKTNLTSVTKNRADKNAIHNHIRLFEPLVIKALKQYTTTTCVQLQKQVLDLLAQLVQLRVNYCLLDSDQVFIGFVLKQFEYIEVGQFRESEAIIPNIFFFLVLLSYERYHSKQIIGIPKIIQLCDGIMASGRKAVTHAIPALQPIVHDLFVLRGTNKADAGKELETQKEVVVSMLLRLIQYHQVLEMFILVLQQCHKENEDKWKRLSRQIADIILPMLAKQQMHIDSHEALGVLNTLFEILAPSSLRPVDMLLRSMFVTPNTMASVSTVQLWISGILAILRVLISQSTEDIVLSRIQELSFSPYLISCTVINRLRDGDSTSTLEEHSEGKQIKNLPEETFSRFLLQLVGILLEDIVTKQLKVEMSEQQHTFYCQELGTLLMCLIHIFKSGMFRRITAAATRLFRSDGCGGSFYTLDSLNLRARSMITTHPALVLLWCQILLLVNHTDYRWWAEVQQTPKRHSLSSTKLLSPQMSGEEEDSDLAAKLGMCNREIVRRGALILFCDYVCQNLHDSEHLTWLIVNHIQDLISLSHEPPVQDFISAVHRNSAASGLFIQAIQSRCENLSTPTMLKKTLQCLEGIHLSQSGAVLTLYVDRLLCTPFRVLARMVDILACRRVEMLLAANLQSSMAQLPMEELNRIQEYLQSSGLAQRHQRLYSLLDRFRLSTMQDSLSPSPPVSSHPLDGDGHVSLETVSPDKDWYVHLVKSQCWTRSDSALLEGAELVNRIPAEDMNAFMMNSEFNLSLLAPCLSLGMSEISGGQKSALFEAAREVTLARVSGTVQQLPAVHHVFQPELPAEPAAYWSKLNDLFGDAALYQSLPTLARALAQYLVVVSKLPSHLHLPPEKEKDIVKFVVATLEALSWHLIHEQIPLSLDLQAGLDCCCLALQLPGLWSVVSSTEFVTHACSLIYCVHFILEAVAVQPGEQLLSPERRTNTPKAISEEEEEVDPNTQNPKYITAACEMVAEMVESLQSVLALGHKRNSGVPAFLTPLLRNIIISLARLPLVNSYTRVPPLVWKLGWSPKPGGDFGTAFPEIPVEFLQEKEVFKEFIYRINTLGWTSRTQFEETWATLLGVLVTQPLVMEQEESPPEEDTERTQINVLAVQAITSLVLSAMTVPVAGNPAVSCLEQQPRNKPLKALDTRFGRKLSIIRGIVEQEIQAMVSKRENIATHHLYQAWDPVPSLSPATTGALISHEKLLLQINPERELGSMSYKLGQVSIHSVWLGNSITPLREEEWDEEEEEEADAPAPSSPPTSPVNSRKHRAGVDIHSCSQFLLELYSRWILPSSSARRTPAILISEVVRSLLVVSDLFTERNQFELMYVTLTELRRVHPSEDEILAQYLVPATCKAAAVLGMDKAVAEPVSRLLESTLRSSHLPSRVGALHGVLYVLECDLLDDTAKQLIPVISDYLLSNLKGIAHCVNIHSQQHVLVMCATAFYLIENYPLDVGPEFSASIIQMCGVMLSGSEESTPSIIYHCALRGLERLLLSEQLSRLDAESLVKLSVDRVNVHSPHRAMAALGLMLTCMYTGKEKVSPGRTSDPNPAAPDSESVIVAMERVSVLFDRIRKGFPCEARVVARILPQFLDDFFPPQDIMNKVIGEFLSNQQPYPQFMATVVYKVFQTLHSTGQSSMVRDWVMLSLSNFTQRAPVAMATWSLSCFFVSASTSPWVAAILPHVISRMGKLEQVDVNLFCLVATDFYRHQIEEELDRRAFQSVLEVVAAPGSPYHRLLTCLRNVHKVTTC
# [3] = molecular target: T2, huntingtin exon 1-thioredoxin (TRX) …; assay: SEC-MALS
# [4] = molecular target: T1, huntingtin exon 1-thioredoxin (TRX) …; assay: SEC-MALS
# T1 sequence (P42858 whole entry, looked up, change not shown, the tested form may be a part): as above
binder,measurement,setting,value
"3B5H10 Fab (Fab, V domains shown) VH: QIQLVQSGPELKKPGETVKISCKASGYTFTTYGMSWVKQAPGKGFEWMGWINTYSGVPTYVDDFKGRFAFSLETSASTAYLQINNLKNEDTAVYFCARGGDNYLWFAYWGQGTLVTVSA VL: QLVLTQSSSASFSLGASAKLTCTLNSQHSTYTIEWYQQQPLKPPKYVMELKKDGSHSTGDGIPDRFSGSSSGADRYLSISNIQPEDEAIYICGVGDTIKEQFVYVFGGGTKVTVL",stoichiometry N,[1],1 Fab:HD-16Q
same,N at 5 μM 3B5H10 Fab in the equilibration buffer (ratio with flat baseline),[2],~2.6 Fab:HD-39Q
same,stoichiometry N,[2],3 Fab:HD-39Q
same,stoichiometry N,[3],> 1 3B5H10 Fab:HD-39Q and < 2 3B5H10 Fab:HD-39Q
same,stoichiometry N,[4],1 3B5H10 Fab:HD-16Q
